{"source": "paper PMC3630801", "about": "(Biochemistry, 2013)", "key": {"[1]": {"molecular_target": "T1, BtuB, Escherichia coli vitamin B12 transporter (wild type) (Escherichia coli, UniProt P06129 21-614)", "T1 sequence (looked up)": "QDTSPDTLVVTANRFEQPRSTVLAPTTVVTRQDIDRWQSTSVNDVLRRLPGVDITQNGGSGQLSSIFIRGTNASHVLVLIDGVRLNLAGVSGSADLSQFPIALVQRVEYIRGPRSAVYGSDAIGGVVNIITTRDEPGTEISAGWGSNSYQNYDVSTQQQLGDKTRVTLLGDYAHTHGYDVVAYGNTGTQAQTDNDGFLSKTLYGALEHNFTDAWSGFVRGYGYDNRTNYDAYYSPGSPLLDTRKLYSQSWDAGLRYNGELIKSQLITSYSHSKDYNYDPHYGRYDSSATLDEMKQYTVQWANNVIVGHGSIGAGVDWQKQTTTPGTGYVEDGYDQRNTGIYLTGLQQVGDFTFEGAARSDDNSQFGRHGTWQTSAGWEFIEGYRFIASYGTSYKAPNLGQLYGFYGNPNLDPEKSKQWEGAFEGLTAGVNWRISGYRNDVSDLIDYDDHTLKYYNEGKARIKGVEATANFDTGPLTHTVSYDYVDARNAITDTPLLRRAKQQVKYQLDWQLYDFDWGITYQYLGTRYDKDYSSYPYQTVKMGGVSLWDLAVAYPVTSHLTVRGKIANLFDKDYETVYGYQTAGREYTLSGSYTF", "experiment": "fluorescence polarisation"}, "[2]": {"molecular_target": "T2, FhuA, Escherichia coli ferrichrome transporter (Escherichia coli, UniProt P06971 34-747)", "T2 sequence (looked up)": "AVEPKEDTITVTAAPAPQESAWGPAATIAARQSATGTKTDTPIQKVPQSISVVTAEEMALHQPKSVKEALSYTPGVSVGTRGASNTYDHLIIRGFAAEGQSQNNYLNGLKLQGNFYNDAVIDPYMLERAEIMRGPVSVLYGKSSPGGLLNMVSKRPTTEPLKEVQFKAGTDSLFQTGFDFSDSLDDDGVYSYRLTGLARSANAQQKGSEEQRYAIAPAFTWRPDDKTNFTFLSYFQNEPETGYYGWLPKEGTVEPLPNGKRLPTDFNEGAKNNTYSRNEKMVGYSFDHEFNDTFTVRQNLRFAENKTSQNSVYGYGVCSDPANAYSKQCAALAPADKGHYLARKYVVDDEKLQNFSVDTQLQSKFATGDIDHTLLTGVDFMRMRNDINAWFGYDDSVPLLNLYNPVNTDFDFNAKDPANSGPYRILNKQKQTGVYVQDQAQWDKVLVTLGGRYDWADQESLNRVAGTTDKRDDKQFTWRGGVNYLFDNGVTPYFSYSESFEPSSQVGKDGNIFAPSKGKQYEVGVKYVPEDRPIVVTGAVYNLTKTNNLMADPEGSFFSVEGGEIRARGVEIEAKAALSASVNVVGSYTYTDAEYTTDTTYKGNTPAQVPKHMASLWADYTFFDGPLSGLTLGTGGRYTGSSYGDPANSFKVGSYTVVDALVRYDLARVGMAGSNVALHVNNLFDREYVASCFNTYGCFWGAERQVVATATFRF", "experiment": "fluorescence polarisation"}, "[3]": {"molecular_target": "T1, BtuB, Escherichia coli vitamin B12 …", "experiment": "fluorescence polarisation", "remark": "listed apart in the source"}, "[4]": {"molecular_target": "T2, FhuA, Escherichia coli ferrichrome …", "experiment": "fluorescence polarisation", "remark": "listed apart in the source"}, "[5]": {"molecular_target": "T1, BtuB, Escherichia coli vitamin B12 …", "experiment": "continuous-wave EPR lineshape"}, "DEER": {"molecular_target": "the molecule itself", "experiment": "DEER"}, "[6]": {"molecular_target": "T2, FhuA, Escherichia coli ferrichrome …", "experiment": "DEER"}, "[7]": {"molecular_target": "T3, FecA, Escherichia coli ferric citrate transporter (Escherichia coli, UniProt P13036 34-774)", "T3 sequence (looked up)": "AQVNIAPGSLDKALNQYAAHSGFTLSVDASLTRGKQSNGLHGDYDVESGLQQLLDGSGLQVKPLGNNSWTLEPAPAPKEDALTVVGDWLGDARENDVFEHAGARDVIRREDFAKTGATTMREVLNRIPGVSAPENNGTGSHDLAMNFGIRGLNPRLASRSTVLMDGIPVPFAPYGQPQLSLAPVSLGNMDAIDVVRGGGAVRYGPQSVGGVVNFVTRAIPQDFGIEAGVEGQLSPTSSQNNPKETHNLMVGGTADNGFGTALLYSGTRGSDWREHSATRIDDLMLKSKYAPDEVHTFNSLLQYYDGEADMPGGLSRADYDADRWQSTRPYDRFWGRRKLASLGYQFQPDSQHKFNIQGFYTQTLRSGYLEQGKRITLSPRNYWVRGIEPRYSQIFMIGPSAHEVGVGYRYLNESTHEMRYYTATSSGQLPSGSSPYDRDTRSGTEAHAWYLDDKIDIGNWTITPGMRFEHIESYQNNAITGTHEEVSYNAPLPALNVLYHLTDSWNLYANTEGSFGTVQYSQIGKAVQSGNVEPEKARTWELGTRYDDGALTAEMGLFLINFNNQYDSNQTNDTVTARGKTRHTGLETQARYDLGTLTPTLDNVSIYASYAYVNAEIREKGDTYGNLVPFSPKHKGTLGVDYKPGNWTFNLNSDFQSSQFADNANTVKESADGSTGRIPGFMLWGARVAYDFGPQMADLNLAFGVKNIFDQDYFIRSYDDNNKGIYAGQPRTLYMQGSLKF", "experiment": "DEER"}}, "note": "Read-outs that look alike come from different tables or passages of the source."}
{"binder": "TonB_(ΔTMD) L194C labeled with BODIPY FL (domain or fragment, BODIPY FL N-(2-aminoethyl)maleimide on Cys194 (labeling efficiency ~75%)) not shown", "values": [{"measurement": "Kd", "setting": "[1]", "value": 26, "unit": "nM"}, {"measurement": "Kd", "setting": "[2]", "value": 38, "unit": "nM"}, {"measurement": "Kd", "setting": "[3]", "value": 61, "unit": "nM"}, {"measurement": "Kd", "setting": "[4]", "value": 64, "unit": "nM"}]}
{"binder": "TonB_(ΔTMD) R187R1 (spin-labeled) (domain or fragment, R1 spin-label side chain (cysteine derivatized with MTSL) at 187) not shown", "values": [{"measurement": "binding result", "setting": "[5]", "value": "binds"}]}
{"binder": "TonB_(ΔTMD) E203R1 (spin-labeled) (domain or fragment, R1 spin-label side chain (cysteine derivatized with MTSL) at 203) not shown", "values": [{"measurement": "binding result", "setting": "[5]", "value": "binds"}, {"measurement": "binding result", "setting": "DEER", "value": "binds"}, {"measurement": "binding result", "setting": "[6]", "value": "binds"}, {"measurement": "binding result", "setting": "[7]", "value": "binds"}]}
{"binder": "TonB_(ΔTMD) I224R1 (spin-labeled) (domain or fragment, R1 spin-label side chain (cysteine derivatized with MTSL) at 224) not shown", "values": [{"measurement": "binding result", "setting": "[5]", "value": "binds"}, {"measurement": "binding result", "setting": "DEER", "value": "binds"}]}
